Assays:
[1] = target: T1, SPPT, Sfp-like phosphopantetheinyl transferase (PPTase) from Synechocystis sp. PCC6803 (Synechocystis sp. PCC6803, UniProt Q55185 1-246); test: read from Km, Michaelis-Menten kinetics of phosphopantetheinylation (HPLC)
T1 construct: Recombinant protein with a His-tag from pET28b, made in E. coli
T1 sequence: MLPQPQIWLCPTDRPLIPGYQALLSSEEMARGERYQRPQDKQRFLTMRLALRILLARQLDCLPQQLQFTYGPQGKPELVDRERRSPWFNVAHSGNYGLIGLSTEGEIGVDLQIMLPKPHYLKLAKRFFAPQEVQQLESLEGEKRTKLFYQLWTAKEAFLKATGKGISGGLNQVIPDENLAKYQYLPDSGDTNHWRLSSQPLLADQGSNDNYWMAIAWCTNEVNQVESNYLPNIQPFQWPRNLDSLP

[2] = target: T2, APPT, Sfp-like phosphopantetheinyl transferase (PPTase) from Anabaena sp. PCC7120 (Anabaena sp. PCC7120, UniProt P37695 1-237); test: as above
T2 construct: also called Anabaena PPTase
T2 sequence: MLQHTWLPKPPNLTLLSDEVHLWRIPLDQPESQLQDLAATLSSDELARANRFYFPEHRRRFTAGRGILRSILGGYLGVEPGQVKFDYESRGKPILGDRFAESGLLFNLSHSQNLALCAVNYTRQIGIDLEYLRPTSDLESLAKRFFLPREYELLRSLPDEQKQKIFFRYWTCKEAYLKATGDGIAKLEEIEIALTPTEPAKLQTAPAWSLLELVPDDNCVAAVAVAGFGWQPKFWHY

B1: SFACP, ACP of the FAS from Synechocystis (other)
chain: MDQEIFEKVKKIVVEQLEVDPDKVTPDATFAEDLGADSLDTVELVMALEEEFDIEIPDEVAETIDTVGKAVEHIESK
B1: binds [1]; binds [2].

From patent publication US20210087522A1 (UNIVERSITY OF FLORIDA RESEARCH FOUNDATION, published 2021)
